{"source": "patent US20090142281A1", "about": "“Composition Comprising A Coupled Enzyme System” (priority 2005, published 2009)", "molecules": {"B1": {"name": "sorbitol oxidase from Streptomyces species H-7775: sorbitol oxidase of Streptomyces sp. H-7775, SEQ ID NO 1, 420 amino acids (protein)", "chain": "MTPAEKNWAGNITFGAKRLCVPRSVRELRETVAASGAVRPLGTRHSFNTVADTSGDHVSLAGLPRVVDIDVPGRAVSLSAGLRFGEFAAELHARGLALANLGSLPHISVAGAVATGTHGSGVGNRSLAGAVRALSLVTADGETRTLRRTDEDFAGAVVSLGALGVVTSLELDLVPAFEVRQWVYEDLPEATLAARFDEVMSAAYSVSVFTDWRPGPVGQVWLKQRVGDEGARSVMPAEWLGARLADGPRHPVPGMPAGNCTAQQGVPGPWHERLPHFRMEFTPSNGDELQSEYFVARADAVAAYEALARLRDRIAPVLQVSELRTVAADDLWLSPAHGRDSVAFHFTWVPDAAAVAPVAGAIEEALAPFGARPHWGKVFSTAPEVLRTLYPRYADFEELVGRHDPEGTFRNAFLDRYFRR", "modifications": "Streptomyces sp. H7775"}}, "key": {"[1]": {"test": "In gel overlay activity assay (PMS/NBT) using sorbitol as substrate", "format": "biochemical", "conditions": "native gel", "from_the_text": "b) In gel overlay activity assay (PMS/NBT) using sorbitol as substrate.\nThe cell lysates were fractionated on a native gel that was further tested in an in-gel overlay activity assay using sorbitol as the substrate and an assay based on the PMS mediated reduction of NBT. […] The PMS/NBT is a diagnostic assay for flavoproteins where PMS=phenazine methosulfate is a redox mediator which is reduced by reduced FAD."}, "[2]": {"conditions": "cited from earlier work"}}, "data": [{"molecule": "B1", "values": [{"measurement": "activity towards sorbitol (stained band)", "setting": "[1]", "result": "has activity towards sorbitol"}, {"measurement": "pH range of stability", "setting": "[2]; 24 hours at 30° C.", "result": "7.5-10 pH"}, {"measurement": "optimum temperature", "setting": "[2]; at pH 7.5", "result": 50, "unit": "°C"}]}]}
